The data set in a line: yeast display, Sf9 membrane polyspecificity reagent, FACS + sequencing; frameworks hold sequencing errors. The method in brief: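 A nanobody's polyreactivity label depends on the gate it was sorted from. Yeast display cells were stained with 10% biotinylated, detergent-solubilized Sf9 membrane reagent for 1 hour at 4 °C, enriched on streptavidin microbeads and sorted by FACS. The low and high (top ~1%) gates were set on anti-HA fluorescence for expression and streptavidin fluorescence for reagent binding.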
With “QVQLVESGGGLVQAVGTLRLTCAASGITFNVNAMGWYRQEPGKERELVARITTSGGSTSYADSVKGRFTISRDNAYNTVYLQMNSLKPEDTAVYYCAADRARYFSEYDYWGQGTQVTVSS”, the “polyreactivity (PSR sort gate)” value was “low polyreactivity”. Under “QVQLVESGGGLVQAVVSLRLSCADTGFTFRRYAMGWDRQAPGKERELVAVITTAGSTNYADSVKGRFTISRDNAKNTVYLKMNSLKPEDTAVYYCATDNGTRKRRYDYWGQGTQVTVSS” stands “low polyreactivity”; under “QVQLVESGGGLVQEGCSLRLICAASGSIFGYYAMGWYRQAPGKERELVAAISTAGSTNYADSVKGRFTISRDNAKNTVYLQMNSLKPEDTAVYYCAKKSSWYYPERFDYWGQGTQVTVSS”, “low polyreactivity”.

Regarding “QVQLVESGGGLVQEGDSLRLSCAASGIIFLWYTLGLYRPAPGKERELVATISWGGGSTYADSVKGRFTISRDNAKNTVYLQMNSLKPEDTAVYYCAADNRYFRGQAYDYWGQGTQVTVSS”, the “polyreactivity (PSR sort gate)” value was “low polyreactivity”. Under “QVQLVESGGGLVQEGGSLHLICAASGRIFGKYPMGWYRQAPGKEREFVAAIRSSDGNTYYADSVKGRFTISRDNAKNTVYLQMNSLKPDDTAVYYCNAGRVTRRDTFDYWGQGTQVTVSS” stands “high polyreactivity”; under “QVQLVESGGGLVQEGGSLRFSCAASGFTFDHYAMGWNRQAPGKERELVAVITKSGDSTYYADSVKGRFTISRDNAKNTVYLQMNSQKPEDPAVYYCNARRDYDMDWGQGTQVTVSS”, “high polyreactivity”.

In the case of “QVQLVESGGGLVQEGGSLRISCAASGFSYENNAMGRYRQAPGKERERVAGITSGGGSTYYADSVKGRFTISRDNAKNTVYLQMNSLKPEDTAVYYCNKMYTRVGFTFEYWGQGTQVTVSS”, the “polyreactivity (PSR sort gate)” value is recorded as “low polyreactivity”.

For the sequence “QVQLVESGGGLVQEGGSLRLICAASGRIFGDYGMGWYRQAPGKERELVAAITDRGGTTYYADSVKGRFTISRDNAKNTVYLQMNSLNPEDTAVYYCNARQSDIFDYDYWGQGTQVTVSS”, the “polyreactivity (PSR sort gate)” value was “low polyreactivity”. As to “QVQLVESGGGLVQEGGSLRLICAASGRTLNSYDMGWYRQEPGKERELVAAISWSGTNTYYSDSVKGRFTISRDNAKNTVYLQMNCLKPEDTAVYYCNAVTKATRYEYWGQGTQVTVSS”, the “polyreactivity (PSR sort gate)” value is reported as “high polyreactivity”.

As for “QVQLVESGGGLVQEGGSLRLICAASGSIFWLYAMGWYRQAPGKERELVAAIDSGDSTKYADSVKGRFTISRDNAKYTVYLQMNSLKPEDTAVYYCNASRRYHVRAPYDYWGQGTQVTVSS”, the “polyreactivity (PSR sort gate)” value is listed as “low polyreactivity”. Under “QVQLVESGGGLVQEGGSLRLICEASGFIFYNYAMGWYRQAPGKERELVAAISSSGGRTYYADSVKGRFTISRDNAKNTVYLQMNRLKREDTAVYYCNARVNYKGYDYWGQGTQVTVSS” stands “high polyreactivity”. Under “QVQLVESGGGLVQEGGSLRLSCAASGFIFKHYAMGWYRQAPGKEMELVAAISGGGSTNYADSVKGRFTISRDNAKNTVYLQMNSLKPEDSAVYYCAARSRSLGYGYWGQGTHVTVSS” stands “low polyreactivity”; under “QVQLVESGGGLVQEGGSLRLSCAASGFISGFYGMGWYRQAPRKEREFVAAIEFIDGDTYYADSVKGRFTISRDNAKNTVYLQMNSLKPEDTAVYYCAADGSFWQFDYWGQGTQVTVSS”, “low polyreactivity”; under “QVQLVESGGGLVQEGGSLRLSCAASGFTFAQYALGWYRQAPGNERELVAAISRRGGRTYYADSVTGRFTISRDIAKNTVYLQMTSLKPEDSAVSYCAADGGYQDDYDYWGQGTQVTVSS”, “high polyreactivity”. “QVQLVESGGGLVQEGGSLRLSCAASGFTFNNYAMGWYRQAPGKERELVAAISSVGRTYYAYSVKGRFTISRDNAKNTVYLQMISLKPEDTAVYYCNRRWYTHWGQGTQVTVSS”: the “polyreactivity (PSR sort gate)” value is listed as “high polyreactivity”. Next, “QVQLVESGGGLVQEGGSLRLSCAASGIIFLDNAMGWYRQAPGKERELVAAITTGGITYYADSVKGRFTISRDNAKNTVYLQMNSLKPEDTAVYYCATDPVNSGYQRYYYWGQGTQVTVSS”: “low polyreactivity”. Next, “QVQLVESGGGLVQEGGSLRLSCAASGLIFRYYGMGWYRQAPGKERELVAAIRWSAGSTYYADSVKGRFTNSRDYAKITVYFQMNSLKPEDTAVYYCAVAIGYVYKPYYYWGQGTQVTVSS”: “high polyreactivity”; “QVQLVESGGGLVQEGGSLRLSCAASGLIFSEYAMGWSRQAPGKERELVAAIRSDGGSTYYADSVKGRFTISRDNAKNSVYLQMNSLKPEDTAVYYCNAPYRRSAKFRRYGYDYLGQGTQVTVSS”: “high polyreactivity”. For the sequence “QVQLVESGGGLVQEGGSLRLSCAASGLTFTGNAMGGYRQAPGKEREFVAAIRWSAGSTYYADSVKGRFTISRDNAKNTVYLQMNSLKPEDTAVYYCYAALIVSGHNPNDYWGQGTQVTGSS”, the “polyreactivity (PSR sort gate)” value is recorded as “low polyreactivity”.

“QVQLVESGGGLVQEGGSLRLSCAASGRIFKYNAMGWYRQAPGKERELVAAISSSGGSTYYADSVKGRFTISRDNAKNTVYLHMNSLKPEDTAVYYCAARYNSRVYRYDYWGQGTQVTVSS”: the “polyreactivity (PSR sort gate)” value was “high polyreactivity”. With “QVQLVESGGGLVQEGGSLRLSCAASGRIFSYNTVMGWYIQAPGKERELVAAITFSSASTYYADSVKGRFTISRDNAKNTVYLQMNSLKPEDTAVYYCAAAIRSQSSKYYYWGQGTQVTVSS”, the “polyreactivity (PSR sort gate)” value was “low polyreactivity”.

On to “QVQLVESGGGLVQEGGSLRLSCAASGRTFAVYAMGWYRQAPGKERELVAAITYGGGRTYYADSVKGRFTISRDNAKNTVYLQMNSLKPEDTAVYYCAADYYGTDYDYWGQGTQVTVSS”, for which the “polyreactivity (PSR sort gate)” value is recorded as “low polyreactivity”. Next, “QVQLVESGGGLVQEGGSLRLSCAASGRTFTTYAMGWYRQAPGKERELVAAISDTGGITYYADSVKGRFTISRDTAKNTVYIQMNSLKPEDTAVYYCNAESYGGDYDYWGQGTQVTVSS”: “low polyreactivity”; “QVQLVESGGGLVQEGGSLRLSCAASGRTIIQNGMGWYRQAPGKERELVAAISYRGGTTSYADSVKGRFTISRDNAKNTVYLQMNSLKPEDTAVYSCAAVGHTIYATPTYYYWGQGTQVTVSS”: “high polyreactivity”; “QVQLVESGGGLVQEGGSLRLSCAASGRTIVSNAMGWYRQAPGKERELVAAIRYGGGRTYYADSVKGRFTISRDNAKNTVYLQMNSLKPEDTAVYYCAKRSVGGTGYYWGQGTQVTVSS”: “high polyreactivity”.

“QVQLVESGGGLVQEGGSLRLSCAASGRTLYRNAMGWYRQAPGKERELVAAISRSGGRTSYADSVKGRFTISRDNANNTVYLQMNSLIPEDTAVYYCNDVASHEFDYWGEGTQVTVSS”: the “polyreactivity (PSR sort gate)” value is recorded as “high polyreactivity”.

Regarding “QVQLVESGGGLVQEGGSLRLSCAASGSIFGGYALGWYRQAPGKERELVAAITWRGGRTYYADSVKGRFTISRDNAKNTVYLQMNSMKPEDTAVYYCNAVGSYRLYDYWGQGTQVTVSS”, the “polyreactivity (PSR sort gate)” value is listed as “high polyreactivity”. Take “QVQLVESGGGLVQEGGSLRLSCAASGSIFYNAMGWTRQAPGKERELVAAISSRGASTYYADSVKGRFTISRDNAKNTVYLLMNSLKPEDTAVYYCAKDNRYPYPSGLDYWGQGTQVTVSS”: the “polyreactivity (PSR sort gate)” value is on record as “high polyreactivity”.

In the case of “QVQLVESGGGLVQEGGSLRLSCAASGSILYYYAMGWYRQAPGKERELVATITRRGGSTYYADSVKGRFTISRDNAKNTVYLQMNSLKPEDTAVYFCAARSRYGELYYWGQGTQVTVSS”, the “polyreactivity (PSR sort gate)” value was “high polyreactivity”. Under “QVQLVESGGGLVQEGGSLRLSCAASGSTFAANTMGWYRQAPGKERELVAAITVRGGSTYYADSVKGRFSMSRDNAKNTVYLQTNSLKPEDTAVYDCAAERPPYGYLVVGYVSTQYYYWGQGTQVTVSS” stands “low polyreactivity”; under “QVQLVESGGGLVQEGGSLRLSCAASGSTFTPYAMGWYRQAPGKERELVAGITGNGGSTRYADSVKGRFTISRDNEKNTVYLQMKSLKTEDSAVYYCAARWTRQRYRTSYYAWGQGTQVTVSS”, “high polyreactivity”; under “QVQLVESGGGLVQEGGSLRLSCAASGSTFTYNDMGRYRQAPGKERELVAAITDSDGITYYADSVKGRFTISRDNAKNTVYLQMHSLKPEDTAVSYCAAYYYGSVAQDREYWGQGTQVTVSS”, “high polyreactivity”.

Take “QVQLVESGGGLVQEGGSLRLSCAASGSTFYSNAMGWYRQARGKEREFLAAISWSGGSTYYADSVKGRFTISRDNAKNTVYFQMNSLKPEDTAVYYCAKKPYYYAFCGYGYWGQGSQVTVSS”: the “polyreactivity (PSR sort gate)” value is “high polyreactivity”.

Turning to “QVQLVESGGGLVQEGGSLRLSCAASGYIFWSNTMGWYRQAPGKERELVAAISQSTASTYYADSVKGRFTISRDNAKNTVYLQMNSLKPDDTAVYYCAADGWSRSWGYWVHYGYWGQGTQVTVSS”, the “polyreactivity (PSR sort gate)” value is “low polyreactivity”. For the sequence “QVQLVESGGGLVQEGGSLRLSCAASVRIFSDYAMGWYIQAPGKERELVATITSGDSTNYADSVKGRFTISRDNAKNTVYLQMNSLKPEDNAVYYFNADRFADYDYWGQGTQVTVSS”, the “polyreactivity (PSR sort gate)” value is recorded as “low polyreactivity”. Under “QVQLVESGGGLVQEGGSLRLSCAAYGFIFGDNALGWYRQAPGKERELVAGSTVSDGSTYYADSVKGRFTISRDNAKNTVYLLMNSLKPEDTAVYYCNAAGRYKPGAPYDYWGQGNQVTVSS” stands “low polyreactivity”; under “QVQLVESGGGLVQEGGSLRLSCACSARTITGYAIGWYRQAPGQEWEVVAAIYRRGASTYYADSVKGRFTISRDNAKNTVYLEMNSLKPEDTAVDYCAAYLYGLWSVGRDYWGQGTQVTVSS”, “high polyreactivity”. Next, “QVQLVESGGGLVQEGGSLRLSCADSGRIFSTNAMGWSRQAPGKERELVAAISWSTGSTYYADSVKGRFTISRDNAKNTVYLQMNSLKPEDTAVYYCAASYTRTYWAYSYGYWGQGTQVTVSS”: “high polyreactivity”; “QVQLVESGGGLVQEGGSLRLSCADSGSTFHYYTMGWYRQAPGKERELVAAISWRGTSTYYADSVKGRFTISRDNAKNTVYLQMNSLKPEDTAVYYCAVRSSPGAGYYYWGQGTQVTVSS”: “high polyreactivity”. Under “QVQLVESGGGLVQEGGSLRLSCDASAITIGRYAMGWYRQAPGKERELVAAISWSGGSTYFADSVKGRFTISRDNAKNTVYLHMNSLKPEDTAVYYCATRIRTVAYNYWGQGTQVTVSS” stands “high polyreactivity”; under “QVQLVESGGGLVQEGGSLRLTCAASGITFIYYAMGWYRQAPGKERELVAAISTGGSTYYADSVKGRCTISRDNAMNTVYLQMISLKPEDTAVYYWNALRKSLRGGDYWGQGTQVTVSS”, “high polyreactivity”.

These data come from the nanobody polyreactivity screen of Harvey et al. (2022).
